The record followed here is publication PMC6358605 (2019).

B1: biotinylated AviTag-BiP^19–413 (NBD) (domain or fragment)
chain: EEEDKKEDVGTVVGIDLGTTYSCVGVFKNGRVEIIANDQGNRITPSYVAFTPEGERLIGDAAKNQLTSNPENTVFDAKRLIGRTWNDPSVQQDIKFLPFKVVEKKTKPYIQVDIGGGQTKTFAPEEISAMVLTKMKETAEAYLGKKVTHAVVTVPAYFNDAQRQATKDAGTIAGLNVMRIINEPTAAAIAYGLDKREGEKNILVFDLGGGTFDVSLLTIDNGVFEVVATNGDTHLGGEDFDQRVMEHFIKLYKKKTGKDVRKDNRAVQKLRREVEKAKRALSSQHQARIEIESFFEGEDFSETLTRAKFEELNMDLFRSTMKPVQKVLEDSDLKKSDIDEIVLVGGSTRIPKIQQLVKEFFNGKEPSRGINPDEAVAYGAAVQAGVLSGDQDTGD
modifications: biotin (on the AviTag, by E. coli BirA)
B2: Full-length mouse MANF (wild-type) (natural protein)
chain: LRPGDCEVCISYLGRFYQDLKDRDVTFSPATIEEELIKFCREARGKENRLCYYIGATDDAATKIINEVSKPLAHHIPVEKICEKLKKKDSQICELKYDNQIDLSTVDLKKLRVKELKKILDDWGEMCKGCAEKSDYIRKINELMPKYAPKAASARTDL
B3: SAP domain (126-169) (domain or fragment)
chain: TVDLKKLRVKELKKILDDWGEMCKGCAEKSDYIRKINELMPKYA

Test [1] addresses B2. Kind of test: BLI; K1/2 max, steady state. In general terms: Biolayer interferometry detects binding as a change in optical thickness at a sensor tip.
Test [2] addresses B1. Kind of test: BLI; steady-state K1/2 max.

B1: in test [1], the affinity, expressed as Kd, was 16 µM.

Consider B2, for which the Kd (in general, the concentration at which binding is half-saturated) in test [2] was found to be 13.9 µM.

For B3, binding in test [2] was characterised by a dissociation constant (Kd) of 10.3 µM.
